Patent US12139520B2 (priority 2020, dated 2024)
Bridge positions count the residues as written; N and C are the ends. Square brackets hold non-standard residues; d marks the D form. Ends that are not written are not given here. Hyp = O=C(O)[C@@H]1C[C@@H](O)CN1; Cit = NC(=O)NCCC[C@H](N)C(=O)O

T1: hAMY3R (human, UniProt P30988)
T1 sequence 1: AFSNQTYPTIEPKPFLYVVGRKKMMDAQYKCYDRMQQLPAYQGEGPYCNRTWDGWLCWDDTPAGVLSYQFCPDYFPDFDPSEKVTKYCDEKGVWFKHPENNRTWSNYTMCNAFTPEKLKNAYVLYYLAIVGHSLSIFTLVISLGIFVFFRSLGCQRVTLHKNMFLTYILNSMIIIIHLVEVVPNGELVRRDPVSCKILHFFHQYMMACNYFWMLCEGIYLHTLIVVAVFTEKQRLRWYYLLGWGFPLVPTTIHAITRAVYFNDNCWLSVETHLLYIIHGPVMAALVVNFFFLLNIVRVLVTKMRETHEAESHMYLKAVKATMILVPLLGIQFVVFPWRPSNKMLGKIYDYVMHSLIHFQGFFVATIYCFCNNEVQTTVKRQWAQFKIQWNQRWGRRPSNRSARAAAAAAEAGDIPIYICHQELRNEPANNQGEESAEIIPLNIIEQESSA
T1 sequence 2: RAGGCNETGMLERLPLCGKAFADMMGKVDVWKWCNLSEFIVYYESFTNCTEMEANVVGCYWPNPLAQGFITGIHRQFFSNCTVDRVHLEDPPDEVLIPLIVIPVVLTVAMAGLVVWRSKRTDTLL


Assays:
hAMY3R = molecular target: T1, hAMY3R; assay: cell-based or functional assay
hAM1R = hAM1R (human, UniProt Q16602); assay: cell-based or functional assay

hAMY3R EC50 (cAMP) (hAMY3R)	hAM1R EC50 (cAMP) (hAM1R)	Binder
0.028 nM	591 nM	GCRFGTCTVQ[Cit]LAHQIYQFTDKDKDNVAPRSKIGPQG[Hyp]-NH2 (disulfide 2-7 (inferred); ends not checked) [SEQ ID NO: 284]
0.194 nM	> 5000 nM	GCRIGTCTVQ[Cit]LAHQIYQFTDKFKDNVAPRSKISPQT[Hyp]-NH2 (disulfide 2-7 (inferred); ends not checked) [SEQ ID NO: 295]
0.034 nM	> 5000 nM	GCRTGTCTVQ[Cit]LAHQIYQFTDKDKDNVAPRSNVGPQG[Hyp]-NH2 (disulfide 2-7 (inferred); ends not checked) [SEQ ID NO: 281]
0.064 nM	> 5000 nM	GCRFGTCTVQ[Cit]LAHQIYQFTDKDKDNVAPRTNISPQG[Hyp]-NH2 (disulfide 2-7 (inferred); ends not checked) [SEQ ID NO: 291]
0.008 nM	> 5000 nM	KCNTATCTVQRLAHQIYQFTKDKDNVAPPTNVGSNG[Hyp]-NH2 (disulfide 2-7 (inferred); not fully specified; ends not checked) [SEQ ID NO: 29]
0.02 nM	> 5000 nM	GCRFGTCTVQ[Cit]LAHQIYQFTDKDKDNVAPRTKISPNG[Hyp]-NH2 (disulfide 2-7 (inferred); ends not checked) [SEQ ID NO: 275]
0.011 nM	155 nM	GCRFGTCTVQ[Cit]LAHQIYQFTDKDKDNVAPRTNVSPQGY-NH2 (disulfide 2-7 (inferred); ends not checked) [SEQ ID NO: 278]
0.013 nM	241 nM	GCRFGTCTVQ[Cit]LAHFLYQFTDKDKDNVAPRTKVGSNGY-NH2 (disulfide 2-7 (inferred); ends not checked) [SEQ ID NO: 279]
0.008 nM	> 5000 nM	KCNTATCTVQRLAHQIYQFTDKDKDNVAPATNVGSNG[Hyp]-NH2 (disulfide 2-7 (inferred); ends not checked) [SEQ ID NO: 28]
0.035 nM	> 5000 nM	GCRFGTCTVQ[Cit]LAHQIYQFTDKDKDNVAPRTNVSPQG[Hyp]-NH2 (disulfide 2-7 (inferred); ends not checked) [SEQ ID NO: 283]
0.07 nM	> 5000 nM	GCRTGTCTVQ[Cit]LAHQIYQFTDKDKDNVAPRTKVGPQG[Hyp]-NH2 (disulfide 2-7 (inferred); ends not checked) [SEQ ID NO: 292]
0.055 nM	> 5000 nM	GCRFGTCTVQ[Cit]LAHQIYQFTDKDKDNVAPRTKVSPQG[Hyp]-NH2 (disulfide 2-7 (inferred); ends not checked) [SEQ ID NO: 287]
0.021 nM	> 5000 nM	GCRTGTCTVQ[Cit]LAHQIYQFTDKDKDNVAPRTNVGPQGY-NH2 (disulfide 2-7 (inferred); ends not checked) [SEQ ID NO: 273]
0.057 nM	> 5000 nM	GCRTGTCTVQ[Cit]LAHQIYQFTDKDKDNVAPRTKVGPQGY-NH2 (disulfide 2-7 (inferred); ends not checked) [SEQ ID NO: 298]
0.024 nM	> 5000 nM	GCRTGTCTVQ[Cit]LAHQIYQFTDKDKDNVAPRTNIGPQG[Hyp]-NH2 (disulfide 2-7 (inferred); ends not checked) [SEQ ID NO: 280]
0.019 nM	877 nM	GCRFGTCTVQ[Cit]LAHQIYQFTDKDKDNVAPRTKIGPQG[Hyp]-NH2 (disulfide 2-7 (inferred); ends not checked) [SEQ ID NO: 274]

hAMY3R EC50 (cAMP) (hAMY3R)	hAM1R EC50 (cAMP) (hAM1R)	Binder
0.047 nM	> 5000 nM	GCRTGTCTVQ[Cit]LAHQIYQFTDKDKDNVAPRSKVGPNG[Hyp]-NH2 (disulfide 2-7 (inferred); ends not checked) [SEQ ID NO: 290]
0.056 nM	> 5000 nM	KCNTATCTVQ[Cit]LAHQIYQATDKDKDNVAPPTNVGSNG[Hyp]-NH2 (disulfide 2-7 (inferred); ends not checked) [SEQ ID NO: 276]
0.157 nM	> 5000 nM	GCRTGTCTVQ[Cit]LAHQIYQFTDKDKDNVAPRSKVGPQGY-NH2 (disulfide 2-7 (inferred); ends not checked) [SEQ ID NO: 285]
0.026 nM	> 5000 nM	GCRTGTCTVQ[Cit]LAHQIYQFTDKDKDNVAPRSNIGPNG[Hyp]-NH2 (disulfide 2-7 (inferred); ends not checked) [SEQ ID NO: 297]
0.009 nM	> 5000 nM	KCNTATCTVQ[Cit]LAHQIYQFTDKDKDNVAPRTEVGSNGY-NH2 (disulfide 2-7 (inferred); ends not checked) [SEQ ID NO: 272]
0.11 nM	> 5000 nM	GCRTGTCTVQ[Cit]LAHQIYQFTDKDKDNVAPRSKIGPNG[Hyp]-NH2 (disulfide 2-7 (inferred); ends not checked) [SEQ ID NO: 299]
0.045 nM	> 5000 nM	GCRFGTCTVQ[Cit]LAHQIYQFTDKDKDNVAPRTKISPQG[Hyp]-NH2 (disulfide 2-7 (inferred); ends not checked) [SEQ ID NO: 294]
0.058 nM	> 5000 nM	GCRTGTCTVQ[Cit]LAHQIYQFTDKDKDNVAPRTKIGPNG[Hyp]-NH2 (disulfide 2-7 (inferred); ends not checked) [SEQ ID NO: 277]
0.025 nM	139 nM	GCRFGTCTVQ[Cit]LAHQIYQFTDKDKDNVAPRSNVSPQGY-NH2 (disulfide 2-7 (inferred); ends not checked) [SEQ ID NO: 286]
0.076 nM	> 5000 nM	GCRFGTCTVQ[Cit]LAHQIYQFTDKDKDNVAPRSNISPQG[Hyp]-NH2 (disulfide 2-7 (inferred); ends not checked) [SEQ ID NO: 300]
0.03 nM	> 5000 nM	GCRFGTCTVQ[Cit]LAHQIYQFTDKDKDNVAPRTKVSPNG[Hyp]-NH2 (disulfide 2-7 (inferred); ends not checked) [SEQ ID NO: 288]
0.008 nM	> 5000 nM	KCNTATCTVQRLAHQIYQFTDKDKDNVPPTNVGSNG[Hyp]-NH2 (disulfide 2-7 (inferred); not fully specified; ends not checked) [SEQ ID NO: 30]
0.392 nM	> 5000 nM	GCRWGTCTVQ[Cit]LAHQIYQFTDKDKDNVAPRSKISPQT[Hyp]-NH2 (disulfide 2-7 (inferred); ends not checked) [SEQ ID NO: 296]
0.005 nM	3500 nM	GCRFGTCTVQ[Cit]LAHQIYQFTDKDKDNVAPRSNVGPQG[Hyp]-NH2 (disulfide 2-7 (inferred); ends not checked) [SEQ ID NO: 289]
0.143 nM	3880 nM	GCRFGTCTVQ[Cit]LAHFLYQFTDKDGAIAPRTKIGSQGY-NH2 (disulfide 2-7 (inferred); ends not checked) [SEQ ID NO: 282]
0.063 nM	> 5000 nM	GCRFGTCTVQ[Cit]LAHQIYQFTDKDKDNVAPRSNVSPQG[Hyp]-NH2 (disulfide 2-7 (inferred); ends not checked) [SEQ ID NO: 293]
